Source: PMC6102232 (2018)

T1: NCBD2 NCBD (Mus musculus, UniProt P45481)
T1 chain: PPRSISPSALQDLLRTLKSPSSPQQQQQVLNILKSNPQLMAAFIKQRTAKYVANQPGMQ

T2: NCBD1 NCBD (Mus musculus, UniProt P45481)
T2 chain: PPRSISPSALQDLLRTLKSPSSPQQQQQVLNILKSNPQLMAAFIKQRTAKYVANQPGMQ


Columns and labels:
[1] = target: ACTR-Avi (Avi-tagged, biotinylated, Cy3B-labelled ACTR) (human); assay: FRET or BRET
[2] = target: T1, NCBD2 NCBD
[3] = target: T2, NCBD1 NCBD

Kd [2] [nM]	Kd [3] [nM]	Molecule	kon [1] [M⁻¹ s⁻¹]
		NCBD wt (single-cysteine variant labelled with CF680R) (domain or fragment)	2.9e+08
650	78	ACTR ACTR (protein) GTQNRPLLRNSLDDLVGPPSNLEGQSDERALLDQLHTLLSNTDATGLEEIDRALGIPELVNQGQALEPKQD	
